For the data set, the target named is SARS-CoV-2 nucleocapsid (N), wild type (SARS-CoV-2, UniProt P0DTC9 1-419). Kind of data set: co-condensation microscopy; 10 uM N, maximal at 5 uM RNA, reentrant. To be noted: protein: recombinant; tags: N-terminal His6 cleaved by TEV; Cys inserted before residue 1 in the dye-labelled fraction; chain copies: 2; label: 6-FAM (fluorescein).

As for AAGCAGCUAAGAGCGAA (ssRNA) [17-mer RNA], the binding result is recorded as “binds”.

(Values after PMC7820290.)
